Article PMC6212719
Positions count from the first letter of the chain named.

B1: sigAP-TGTG (dsDNA)
DNA 1: CACTGAAACTTGCCCGCTCGGGCTGTACTCGTGCGCAGTTGTGTTACAATGGTCAGCGGCGGCCGCCCGACCGATAGCGCGCGAGTATTCACGCTGATATCAACGC
DNA 2: GCGTTGATATCAGCGTGAATACTCGCGCGCTATCGGTCGGGCGGCCGCCGCTGACCATTGTAACACAACTGCGCACGAGTACAGCCCGAGCGGGCAAGTTTCAGTG
B2: sigAP-TG1 (dsDNA)
DNA 1: B1 DNA 1 with T40A, G41A
DNA 2: B1 DNA 2 with C66T, A67T

Key:
[1] = target: T1, MtbRNAP core (alpha2 beta beta' omega);sigma B (Mycobacterium …, UniProt P9WGZ1;P9WGY9;P9WGY7;P9WGY5;P9WGI5 1-347;1-1178;1-1316;1-110;1-323, |); assay: EMSA
[2] = target: MtbRNAP core (alpha2 beta beta' omega);sigma B;RbpA (Mycobacterium …, UniProt P9WGZ1;P9WGY9;P9WGY7;P9WGY5;P9WGI5;P9WHJ5 1-347;1-1178;1-1316;1-110;1-323;1-111, ||); assay: EMSA
[3] = target: MtbRNAP core (alpha2 beta beta' omega);sigma B;RbpA KKAA (Mycobacterium …, UniProt P9WGZ1;P9WGY9;P9WGY7;P9WGY5;P9WGI5;P9WHJ5 1-347;1-1178;1-1316;1-110;1-323;1-111, ||K73A;K74A); assay: EMSA
[4] = target: MtbRNAP core (alpha2 beta beta' omega);sigma B;RbpA R79A (Mycobacterium …, UniProt P9WGZ1;P9WGY9;P9WGY7;P9WGY5;P9WGI5;P9WHJ5 1-347;1-1178;1-1316;1-110;1-323;1-111, ||R79A); assay: KMnO4 footprinting
[5] = target: T1, MtbRNAP core (alpha2 beta beta' …); assay: EMSA; remark: listed apart in the source

Binder | Kd [1] | Kd [2] | binding result [3] | binding result [4] | binding result [5]
B1 | 117 nM | 42 nM | binds | binds | 
B2 |  |  |  |  | binds
